Two molecules from patent US20100047228A1 can be followed below.

Experiment in all cases: cell-based or functional assay
Assay [1] deals with plasmin (human) (UniProt P00747).
Assay [2] deals with mini-plasmin (human) (UniProt P00747).
Assay [3] concerns the target delta-plasmin (human) (UniProt P00747).
The target in assay [4] is micro-plasmin (UniProt P00747).
micro-plasmin, sequence (P00747 562-810 limits assumed): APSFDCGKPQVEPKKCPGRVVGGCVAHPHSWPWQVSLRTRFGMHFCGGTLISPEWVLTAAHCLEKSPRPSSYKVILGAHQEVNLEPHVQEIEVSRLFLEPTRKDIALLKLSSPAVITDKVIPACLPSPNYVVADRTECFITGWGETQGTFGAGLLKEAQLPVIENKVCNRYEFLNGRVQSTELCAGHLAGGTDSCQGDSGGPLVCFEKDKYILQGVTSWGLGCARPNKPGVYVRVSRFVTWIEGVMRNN

delta-plasmin (human), sequence (P00747 other isoform, or with tags, fused parts or gaps mutant limits assumed): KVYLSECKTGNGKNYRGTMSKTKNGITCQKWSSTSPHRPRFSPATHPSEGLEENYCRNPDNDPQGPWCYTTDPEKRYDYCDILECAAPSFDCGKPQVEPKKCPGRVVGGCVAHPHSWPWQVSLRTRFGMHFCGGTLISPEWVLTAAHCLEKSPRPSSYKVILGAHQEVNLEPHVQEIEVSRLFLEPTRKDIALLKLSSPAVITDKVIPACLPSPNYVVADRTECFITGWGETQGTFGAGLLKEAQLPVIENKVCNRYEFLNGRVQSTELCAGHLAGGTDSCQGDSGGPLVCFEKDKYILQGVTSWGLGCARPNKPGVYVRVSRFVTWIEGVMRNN
mini-plasmin (human), sequence (P00747 462-580, chain 1 of 2): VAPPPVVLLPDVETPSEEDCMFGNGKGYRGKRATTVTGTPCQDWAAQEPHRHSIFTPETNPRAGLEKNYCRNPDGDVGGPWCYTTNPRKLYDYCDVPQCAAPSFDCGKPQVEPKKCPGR
mini-plasmin (human), sequence (P00747 581-810, chain 2 of 2): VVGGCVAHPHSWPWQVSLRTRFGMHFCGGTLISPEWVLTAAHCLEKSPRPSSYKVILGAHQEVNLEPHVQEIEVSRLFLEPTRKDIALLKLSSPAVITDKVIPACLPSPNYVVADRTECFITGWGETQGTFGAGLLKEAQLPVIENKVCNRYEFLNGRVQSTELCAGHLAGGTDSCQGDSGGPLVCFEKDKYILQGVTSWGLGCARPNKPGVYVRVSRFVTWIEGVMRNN
plasmin (human), sequence (P00747 20-580, chain 1 of 2): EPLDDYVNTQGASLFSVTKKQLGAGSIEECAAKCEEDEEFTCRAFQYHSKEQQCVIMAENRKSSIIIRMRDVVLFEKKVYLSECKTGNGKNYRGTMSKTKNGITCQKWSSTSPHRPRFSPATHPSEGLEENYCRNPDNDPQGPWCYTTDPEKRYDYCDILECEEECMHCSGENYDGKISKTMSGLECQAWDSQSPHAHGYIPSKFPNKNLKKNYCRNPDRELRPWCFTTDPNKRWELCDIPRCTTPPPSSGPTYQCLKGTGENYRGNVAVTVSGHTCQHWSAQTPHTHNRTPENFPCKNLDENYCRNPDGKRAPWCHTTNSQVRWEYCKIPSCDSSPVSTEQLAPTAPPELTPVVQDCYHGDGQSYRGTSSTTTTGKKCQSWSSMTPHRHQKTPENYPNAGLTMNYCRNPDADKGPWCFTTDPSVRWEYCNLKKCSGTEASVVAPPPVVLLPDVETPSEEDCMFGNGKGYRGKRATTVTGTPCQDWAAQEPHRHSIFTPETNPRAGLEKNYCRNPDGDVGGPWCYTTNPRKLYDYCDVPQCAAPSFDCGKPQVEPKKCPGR
plasmin (human), sequence (P00747 581-810, chain 2 of 2): as the sequence (P00747 581-810, chain 2 of 2) above

B1: α2-macroglobulin (protein, UniProt P01023 24-1474, looked up)
chain: SVSGKPQYMVLVPSLLHTETTEKGCVLLSYLNETVTVSASLESVRGNRSLFTDLEAENDVLHCVAFAVPKSSSNEEVMFLTVQVKGPTQEFKKRTTVMVKNEDSLVFVQTDKSIYKPGQTVKFRVVSMDENFHPLNELIPLVYIQDPKGNRIAQWQSFQLEGGLKQFSFPLSSEPFQGSYKVVVQKKSGGRTEHPFTVEEFVLPKFEVQVTVPKIITILEEEMNVSVCGLYTYGKPVPGHVTVSICRKYSDASDCHGEDSQAFCEKFSGQLNSHGCFYQQVKTKVFQLKRKEYEMKLHTEAQIQEEGTVVELTGRQSSEITRTITKLSFVKVDSHFRQGIPFFGQVRLVDGKGVPIPNKVIFIRGNEANYYSNATTDEHGLVQFSINTTNVMGTSLTVRVNYKDRSPCYGYQWVSEEHEEAHHTAYLVFSPSKSFVHLEPMSHELPCGHTQTVQAHYILNGGTLLGLKKLSFYYLIMAKGGIVRTGTHGLLVKQEDMKGHFSISIPVKSDIAPVARLLIYAVLPTGDVIGDSAKYDVENCLANKVDLSFSPSQSLPASHAHLRVTAAPQSVCALRAVDQSVLLMKPDAELSASSVYNLLPEKDLTGFPGPLNDQDNEDCINRHNVYINGITYTPVSSTNEKDMYSFLEDMGLKAFTNSKIRKPKMCPQLQQYEMHGPEGLRVGFYESDVMGRGHARLVHVEEPHTETVRKYFPETWIWDLVVVNSAGVAEVGVTVPDTITEWKAGAFCLSEDAGLGISSTASLRAFQPFFVELTMPYSVIRGEAFTLKATVLNYLPKCIRVSVQLEASPAFLAVPVEKEQAPHCICANGRQTVSWAVTPKSLGNVNFTVSAEALESQELCGTEVPSVPEHGRKDTVIKPLLVEPEGLEKETTFNSLLCPSGGEVSEELSLKLPPNVVEESARASVSVLGDILGSAMQNTQNLLQMPYGCGEQNMVLFAPNIYVLDYLNETQQLTPEIKSKAIGYLNTGYQRQLNYKHYDGSYSTFGERYGRNQGNTWLTAFVLKTFAQARAYIFIDEAHITQALIWLSQRQKDNGCFRSSGSLLNNAIKGGVEDEVTLSAYITIALLEIPLTVTHPVVRNALFCLESAWKTAQEGDHGSHVYTKALLAYAFALAGNQDKRKEVLKSLNEEAVKKDNSVHWERPQKPKAPVGHFYEPQAPSAEVEMTSYVLLAYLTAQPAPTSEDLTSATNIVKWITKQQNAQGGFSSTQDTVVALHALSKYGAATFTRTGKAAQVTIQSSGTFSSKFQVDNNNRLLLQQVSLPELPGEYSMKVTGEGCVYLQTSLKYNILPEKEEFPFALGVQTLPQTCDEPKAHTSFQISLSVSYTGSRSASNMAIVDVKMVSGFIPLKPTVKMLERSNHVSRTEVSSNHVLIYLDKVSNQTLSLFFTVLQDVPVRDLKPAIVKVYDYYETDEFAIAEYNAPCSKDLGNA
Regarding B1, the inhibition rate in assay [1] stood at 650000 M⁻¹ s⁻¹; in assay [2], 750000 M⁻¹ s⁻¹; in assay [3], 760000 M⁻¹ s⁻¹; in assay [4] it was 780000 M⁻¹ s⁻¹.

B2: α2-antiplasmin (protein, UniProt P08697 40-491, looked up)
chain: NQEQVSPLTLLKLGNQEPGGQTALKSPPGVCSRDPTPEQTHRLARAMMAFTADLFSLVAQTSTCPNLILSPLSVALALSHLALGAQNHTLQRLQQVLHAGSGPCLPHLLSRLCQDLGPGAFRLAARMYLQKGFPIKEDFLEQSEQLFGAKPVSLTGKQEDDLANINQWVKEATEGKIQEFLSGLPEDTVLLLLNAIHFQGFWRNKFDPSLTQRDSFHLDEQFTVPVEMMQARTYPLRWFLLEQPEIQVAHFPFKNNMSFVVLVPTHFEWNVSQVLANLSWDTLHPPLVWERPTKVRLPKLYLKHQMDLVATLSQLGLQELFQAPDLRGISEQSLVVSGVQHQSTLELSEVGVEAAAATSIAMSRMSLSSFSVNRPFLFFIFEDTTGLPLFVGSVRNPNPSAPRELKEQQDSPGNKDFLQSLKGFPRGDKLFGPDLKLVPPMEEDYPQFGSPK
As to B2, the inhibition rate in assay [2] amounted to 240000 M⁻¹ s⁻¹. In assay [3], this molecule had an inhibition rate of 1e+07 M⁻¹ s⁻¹; an inhibition rate, fold against micro-plasmin or mini-plasmin of 40 fold; a rate of inhibition of 1.1e+07 M⁻¹ s⁻¹. In addition, in assay [4], the inhibition rate is 180000 M⁻¹ s⁻¹ and the inhibition rate (second of two separate experiments) turned out to be 310000 M⁻¹ s⁻¹.
